Assay results reported in PMC8162121 (Nature cell biology, 2021).

Experiments:
[1] = molecular target: Flag-tagged EZH2, purified recombinant (human, UniProt Q15910 1-746); experiment: AlphaScreen or HTRF
[2] = molecular target: GST-tagged EZH2, purified recombinant (human, UniProt Q15910 1-746); experiment: AlphaScreen or HTRF
GST-tagged EZH2, purified recombinant, sequence (Q15910 whole entry): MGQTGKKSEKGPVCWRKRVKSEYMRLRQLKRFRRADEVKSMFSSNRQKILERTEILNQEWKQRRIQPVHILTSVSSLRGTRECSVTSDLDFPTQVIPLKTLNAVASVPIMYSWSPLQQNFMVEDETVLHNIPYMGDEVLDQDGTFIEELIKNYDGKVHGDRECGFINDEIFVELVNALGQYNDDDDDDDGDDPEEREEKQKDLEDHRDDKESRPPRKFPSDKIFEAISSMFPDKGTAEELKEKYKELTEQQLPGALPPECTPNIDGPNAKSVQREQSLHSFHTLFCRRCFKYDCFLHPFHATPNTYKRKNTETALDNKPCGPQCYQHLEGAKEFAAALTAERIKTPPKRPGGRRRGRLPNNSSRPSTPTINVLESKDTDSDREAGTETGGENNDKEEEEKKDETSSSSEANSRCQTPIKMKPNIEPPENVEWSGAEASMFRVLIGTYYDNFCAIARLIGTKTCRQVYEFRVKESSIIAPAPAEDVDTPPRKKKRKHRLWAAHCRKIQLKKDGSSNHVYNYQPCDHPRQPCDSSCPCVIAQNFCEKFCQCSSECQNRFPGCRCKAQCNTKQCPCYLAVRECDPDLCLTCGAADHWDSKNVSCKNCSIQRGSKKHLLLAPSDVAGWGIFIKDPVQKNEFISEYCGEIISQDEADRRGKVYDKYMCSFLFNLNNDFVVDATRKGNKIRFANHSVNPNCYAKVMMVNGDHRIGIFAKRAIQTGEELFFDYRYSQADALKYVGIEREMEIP

Flag-tagged EZH2, purified recombinant, sequence (Q15910 whole entry): as above

Row | Kd [1] | Kd [2] | Binder
1 | 43.6 nM | – | unlabeled NOP56, purified recombinant (natural protein, human, UniProt O00567 1-594, looked up) MVLLHVLFEHAVGYALLALKEVEEISLLQPQVEESVLNLGKFHSIVRLVAFCPFASSQVALENANAVSEGVVHEDLRLLLETHLPSKKKKVLLGVGDPKIGAAIQEELGYNCQTGGVIAEILRGVRLHFHNLVKGLTDLSACKAQLGLGHSYSRAKVKFNVNRVDNMIIQSISLLDQLDKDINTFSMRVREWYGYHFPELVKIINDNATYCRLAQFIGNRRELNEDKLEKLEELTMDGAKAKAILDASRSSMGMDISAIDLINIESFSSRVVSLSEYRQSLHTYLRSKMSQVAPSLSALIGEAVGARLIAHAGSLTNLAKYPASTVQILGAEKALFRALKTRGNTPKYGLIFHSTFIGRAAAKNKGRISRYLANKCSIASRIDCFSEVPTSVFGEKLREQVEERLSFYETGEIPRKNLDVMKEAMVQAEEAAAEITRKLEKQEKKRLKKEKKRLAALALASSENSSSTPEECEEMSEKPKKKKKQKPQEVPQENGMEDPSISFSKPKKKKSFSKEELMSSDLEETAGSTSIPKRKKSTPKEETVNDPEEAGHRSGSKKKRKFSKEEPVSSGPEEAVGKSSSKKKKKFHKASQED
2 | – | 842 nM | unlabeled FBL, purified recombinant (natural protein, human, UniProt P22087 1-321, looked up) MKPGFSPRGGGFGGRGGFGDRGGRGGRGGFGGGRGRGGGFRGRGRGGGGGGGGGGGGGRGGGGFHSGGNRGRGRGGKRGNQSGKNVMVEPHRHEGVFICRGKEDALVTKNLVPGESVYGEKRVSISEGDDKIEYRAWNPFRSKLAAAILGGVDQIHIKPGAKVLYLGAASGTTVSHVSDIVGPDGLVYAVEFSHRSGRDLINLAKKRTNIIPVIEDARHPHKYRMLIAMVDVIFADVAQPDQTRIVALNAHTFLRNGGHFVISIKANCIDSTASAEAVFASEVKKMQQENMKPQEQLTLEPYERDHAVVVGVYRPPPKVKN
